Test results from article PMC7784741.
pKd: −log10 of the molar value.

Key:
[1] = target: YAP-binding domain of TEAD from Anabas testudineus (residues 211-428) (Anabas testudineus); experiment: SPR
[2] = target: YAP-binding domain of human TEAD4, TEAD4 217-434 (human) (UniProt Q15561); experiment: SPR
Chain of YAP-binding domain of human TEAD4, TEAD4 217-434 (human) (Q15561 217-434): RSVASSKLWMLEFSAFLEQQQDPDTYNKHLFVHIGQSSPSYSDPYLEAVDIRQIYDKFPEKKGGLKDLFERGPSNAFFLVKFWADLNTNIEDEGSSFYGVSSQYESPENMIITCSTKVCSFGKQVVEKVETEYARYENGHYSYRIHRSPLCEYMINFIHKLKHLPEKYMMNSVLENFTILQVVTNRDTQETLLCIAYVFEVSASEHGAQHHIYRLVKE

Substance | pKd [1] | pKd [2]
synthetic peptide of the TEAD-binding domain of YAP, Anabas testudineus_2 (residues 21-60) | 7.22 | 
synthetic peptide of the TEAD-binding domain of YAP, Anabas testudineus_1 (residues 21-59) | 7.00 | 7.15
